The target of the experiment is cellobiose dehydrogenase IIA from N. crassa (N. crassa).

B1: PMO-03328 (enzyme)
chain: HYTFPKVWANSGTTADWQYVRRADNWQNNGFVDNVNSQQIRCFQSTHSPAQSTLSVAAGTTITYGAAPSVYHPGPMQFYLARVPDGQDINSWTGEGAVWFKIYHEQPTFGSQLTWSSNGKSSFPVKIPSCIKSGSYLLRAEHIGLHVAQSSGAAQFYISCAQLSITGGGSTEPGANYKVSFPGAYKASDPGILININYPVPTSYKNPGPSVFTC
Molecule B1 displayed a Specific activity of H2O2 production (Amplex Red/horseradish peroxidase assay) with CDH IIA (0.3 uM, 500 uM cellobiose) as reductant of 15.5 U g^-1.

B2: PMO-08760 (enzyme)
chain: HATFQALWVDGADYGSQCARVPPSNSPVTDVTSNAMRCNTGTSPVAKKCPVKAGSTVTVEMHQQANDRSCSSEAIGGAHYGPVLVYMSKVSDAASADGSSGWFKIFEDTWAKKPSSSSGDDDFWGVKDLNSCCGKMQVKIPSDIPAGDYLLRAEVIALHTAASAGGAQLYMTCYQISVTGGGSATPATVSFPGAYKSSDPGILVDIHSAMSTYVAPGPAVYSGGSSKKAGSGCVGCESTCKVGSGPTGTASAVPVASTSAAAGGGGGGGSGGCSVAKYQQCGGTGYTGCTSCASGSTCSAVSPPYYSQCV
For the molecule B2, the Specific activity of H2O2 production (Amplex Red/horseradish peroxidase assay) with CDH IIA (0.3 uM, 500 uM cellobiose) as reductant is 1.53 U g^-1.

B3: PMO-01867 (enzyme)
chain: HAIFQQLWVDGVDYGSTCNRLPTSNSPVTNVGSRDVVCNAGTRGVSGKCPVKAGGTVTVEMHQQPGDRSCKSEAIGGAHWGPVQIYLSKVSDASTADGSSGGWFKIFSDAWSKKSGGRVGDDDNWGTRDLNACCGRMDVLIPKDLPSGDYLLRAEALALHTAGQSGGAQFYISCYQITVSGGGSANYATVKFPGAYRASDPGIQINIHAVVSNYVAPGPAVVAGGVTKQAGSGCIGCESTCKVGSSPSAVAPGGKPASGGSDGNAPEVAEPSGGEGSPSAPGACEVAAYGQCGGDQYSGCTQCASGYTCKAVSPPYYSQCAPTS
The molecule B3 registered a Specific activity of H2O2 production (Amplex Red/horseradish peroxidase assay) with CDH IIA (0.3 uM, 500 uM cellobiose) as reductant of 1.07 U g^-1.

B4: PMO-02916 (enzyme)
chain: HTIFQKVSVNGADQGQLKGIRAPANNNPVTDVMSSDIICNAVTMKDSNVLTVPAGAKVGHFWGHEIGGAAGPNDADNPIAASHKGPIMVYLAKVDNAATTGTSGLKWFKVAEAGLSNGKWAVDDLIANNGWSYFDMPTCIAPGQYLMRAELIALHNAGSQAGAQFYIGCAQINVTGGGSASPSNTVSFPGAYSASDPGILINIYGGSGKTDNGGKPYQIPGPALFTCPAGGSGGSSPAPATTASTPKPTSASAPKPVSTTASTPKPTNGSGSGTGAAHSTKCGGSKPAATTKASNPQPTNGGNSAVRAAALYGQCGGKGWTGPTSCASGTCKFSNDWYSQCLP
B4 registered a Specific activity of H2O2 production (Amplex Red/horseradish peroxidase assay) with CDH IIA (0.3 uM, 500 uM cellobiose) as reductant of 1.82 U g^-1.

These data come from article PMC3500269.
